From patent publication US20240010722A1 (published 2024) come the findings set out here.

Where “and” joins values, the source holds several entries; their conditions need not be identical. Equal entries are not always repeated.

In assay [1] the target is T1, cyno MAdCAM (cynomolgus).
T1 construct: also called cynomolgus MAdCAM
The assay can be described thus: BLI (Octet), binder on anti-human Fc tips. On the technique in general: BLI is a label-free optical method that tracks binding on a fibre tip over time.

For assay [2], the target named is T2, human MAdCAM (human, UniProt Q13477 19-317, limits assumed).
T2 construct: also called huMAdCAM; human MAdCAM-1
T2 sequence (looked up): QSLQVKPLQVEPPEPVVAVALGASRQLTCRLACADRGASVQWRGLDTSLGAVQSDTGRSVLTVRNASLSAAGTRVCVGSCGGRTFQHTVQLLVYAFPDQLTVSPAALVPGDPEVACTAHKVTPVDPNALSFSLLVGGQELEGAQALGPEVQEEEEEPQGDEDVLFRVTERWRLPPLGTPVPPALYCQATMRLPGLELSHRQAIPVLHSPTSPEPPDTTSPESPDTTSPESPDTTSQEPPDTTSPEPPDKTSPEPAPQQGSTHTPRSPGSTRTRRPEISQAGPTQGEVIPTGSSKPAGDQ
Briefly: BLI (Octet), binder on anti-human Fc tips.

Assay [3] addresses T3, mouse MAdCAM (mouse, UniProt Q61826 22-365, limits assumed).
T3 construct: also called mouse MAdCAM-1; muMAdCAM
T3 sequence (looked up): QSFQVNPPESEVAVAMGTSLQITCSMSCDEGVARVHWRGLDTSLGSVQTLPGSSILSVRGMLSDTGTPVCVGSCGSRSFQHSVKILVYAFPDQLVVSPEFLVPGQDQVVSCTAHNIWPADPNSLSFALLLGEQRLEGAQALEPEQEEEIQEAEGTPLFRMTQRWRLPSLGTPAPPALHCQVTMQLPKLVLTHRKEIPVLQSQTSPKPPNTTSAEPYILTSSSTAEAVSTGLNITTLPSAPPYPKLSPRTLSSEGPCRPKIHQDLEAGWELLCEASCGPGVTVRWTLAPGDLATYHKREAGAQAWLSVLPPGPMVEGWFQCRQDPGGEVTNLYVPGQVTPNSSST
Briefly: BLI (Octet), binder on anti-human Fc tips.

Assay [4] deals with T1, cyno MAdCAM. The assay can be described thus: BLI (Octet).
Assay [5] has as its target T2, human MAdCAM. Briefly: BLI (Octet).
Assay [6] addresses T3, mouse MAdCAM. The assay can be described thus: BLI (Octet).

B1: MIAB124 (antibody, V domains shown)
VH: EVQLLESGGGLVQPGGSLRLSCAASGFTFSTDAMSWVRQAPGKGLEWSAISGSGGSTYSADSVKGRFTISRDNSKNTLYLQMNSLRAEDTAVYYCARARVDWNSYNDLWGQGTLVTVSS
VL: EIVMTQSPATLSVSPGERATLSCRASQSVNNKLAWYQQKPGQAPRLLIYAASTRATGIPARFSGSGSGTEFTLTISSLQSEDFAVYYCQQYSTWPITFGQGTKVEIK
notes: tested with human Fc
As a reminder, the Kd is a measure of binding affinity in units of concentration. Low readings indicate a tighter complex, high ones a looser complex. B1: the equilibrium dissociation constant (Kd) with cyno MAdCAM [1] came out at 11.5 nM.

B2: MIAB169 (antibody, V domains shown)
VH: EVQLLESGGGLVQPGGSLRLSCAASGFTFSDFWMHWVRQAPGKGLEWISYISGDSGYTNYADSVKGRFTISRDNSKNTLYLQMNSLRAEDTAVYYCARDRPYYYIMDVWGKGTTVTVSS
VL: DIQMTQSPSSLSASVGDRVTITCRASQSVSRSLAWYQQKPGKAPKLLIYAASSLQSGVPSRFSGSGSGTDFTLTISSLQPEDFATYYCQQYKSYPVTFGQGTKVEIK
notes: tested with human Fc; also called MIAB169-CHO; MIAB169-HEK
By koff is commonly meant a measure of how fast the partners let go of each other. Read a high koff as a short-lived complex. By kon is commonly meant the rate constant with which the complex forms. For the molecule B2, in the assay with cyno MAdCAM [1], the Kd was 153 nM. In addition, in the assay with human MAdCAM [2], the Kd was 266 nM and 340 nM; the “fold lower affinity than parent PRNT1” value turned out to be 10 fold; the koff is 0.0738 s⁻¹; the kon was 278000 M⁻¹ s⁻¹.

B3: MIAB1 (antibody, V domains shown)
VH: EVQLLESGGGLVQPGGSLRLSCAASGFTFDDYAMHWVRQAPGKGLEWVASITSSSAFIDYADSVKGRFTISRDNSKNTLYLQMNSLRAEDTAVYYCAREPVDWNSYFDLWGQGTLVTVSS
VL: EIVMTQSPATLSVSPGERATLSCRASQGISNSYLAWYQQKPGQAPRLLIYGASTRATGIPARFSGSGSGTEFTLTISSLQSEDFAVYYCQQYYTYPPTFGQGTKVEIK
notes: tested with human Fc
On to B3, for which the Kd in the assay with cyno MAdCAM [1] came out at 26.5 nM; with human MAdCAM [2], 38.4 nM; with mouse MAdCAM [3], 184 nM.

B4: MIAB2 (antibody, V domains shown)
VH: EVQLLESGGGLVQPGGSLRLSCAASGFTFDDYAMHWVRQAPGKGLEWVASITSSSAFIDYADSVKGRFTISRDNSKNTLYLQMNSLRAEDTAVYYCARERVDWNSYFDLWGQGTLVTVSS
VL: EIVMTQSPATLSVSPGERATLSCRASQGISNSYLAWYQQKPGQAPRLLIYGASTRATGIPARFSGSGSGTEFTLTISSLQSEDFAVYYCQQYYTYPPTFGQGTKVEIK
notes: tested with human Fc
Regarding B4, the Kd with cyno MAdCAM [1] turned out to be 18.8 nM; with human MAdCAM [2], 23.2 nM; with mouse MAdCAM [3] it was 147 nM.

B5: MIAB125 (antibody, V domains shown)
VH: EVQLLESGGGLVQPGGSLRLSCAASGFTFSNYAISWVRQAPGKGLEWSDISGSGGTTYYADSVKGRFTISRDNSKNTLYLQMNSLRAEDTAVYYCARERVDWNSYFDLWGQGTLVTVSS
VL: EIVMTQSPATLSVSPGERATLSCRASQGISNSYLAWYQQKPGQAPRLLIYGASTRATGIPARFSGSGSGTEFTLTISSLQSEDFAVYYCQQYYTYPPTFGQGTKVEIK
notes: tested with human Fc
In the assay with cyno MAdCAM [1], B5 had a dissociation constant Kd of 0.9 nM.

B6: PMAB18 (bispecific antibody, human IgG1, kappa)
heavy: QVQLVQSGAEVKKPGASVKVSCKASGYSFTTYYMHWVRQAPGQGLEWMGIIAPSGGSTSYAQKFQGRVTMTRDTSTSTVYMELSSLRSEDTAVYYCASGWVYWGQGTLVTVSSASTKGPSVFPLAPSSKSTSGGTAALGCLVKDYFPEPVTVSWNSGALTSGVHTFPAVLQSSGLYSLSSVVTVPSSSLGTQTYICNVNHKPSNTKVDKKVEPKSCDKTHTCPPCPAPEAAGAPSVFLFPPKPKDTLMISRTPEVTCVVVDVSHEDPEVKFNWYVDGVEVHNAKTKPREEQYNSTYRVVSVLTVLHQDWLNGKEYKCKVSNKALPAPIEKTISKAKGQPREPQVYTLPPSREEMTKNQVSLTCLVKGFYPSDIAVEWESNGQPENNYKTTPPVLDSDGSFFLYSKLTVDKSRWQQGNVFSCSVMHEALHNHYTQKSLSLSPGGGGGSGGGGSGGGGSEVQLLESGGGLVQPGGSLRLSCAASGFTFSSYWMHWVRQAPGKGLEWVSYISGSGGYTNYADSVKGRFTISRDNSKNTLYLQMNSLRAEDTAVYYCARDRPYYYDMDVWGKGTTVTVSSGGGGSGGGGSGGGGSGGGGSDIQMTQSPSSLSASVGDRVTITCRASQSISSSLAWYQQKPGKAPKLLIYAASSLQSGVPSRFSGSGSGTDFTLTISSLQPEDFATYYCQQYKSYPVTFGQGTKVEIK
light: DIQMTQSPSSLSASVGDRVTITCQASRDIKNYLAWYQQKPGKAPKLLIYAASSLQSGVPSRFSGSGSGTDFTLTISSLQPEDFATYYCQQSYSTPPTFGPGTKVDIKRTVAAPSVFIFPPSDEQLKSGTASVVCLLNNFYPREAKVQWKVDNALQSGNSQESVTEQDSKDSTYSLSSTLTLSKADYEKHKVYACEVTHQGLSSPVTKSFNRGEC
Consider B6, for which, in the assay with cyno MAdCAM [4], the Kd amounted to 22.6 nM, the koff is 0.0102 s⁻¹, the kon worked out at 453000 M⁻¹ s⁻¹ and the response was found to be 0.145. In the assay with human MAdCAM [5], this molecule returned a Kd of 198 nM, a koff of 0.0511 s⁻¹, an association rate constant (kon) of 259000 M⁻¹ s⁻¹ and a response of 0.184. In the assay with mouse MAdCAM [6], this molecule showed a Kd of 201 nM, a koff of 0.0776 s⁻¹ and a kon of 386000 M⁻¹ s⁻¹.

B7: PMAB57 (bispecific antibody, human IgG1, kappa)
heavy: QVQLVQSGAEVKKPGASVKVSCKASGYSFTTYYMHWVRQAPGQGLEWMGIIAPSGGSTSYAQKFQGRVTMTRDTSTSTVYMELSSLRSEDTAVYYCASGWVYWGQGTLVTVSSASTKGPSVFPLAPSSKSTSGGTAALGCLVKDYFPEPVTVSWNSGALTSGVHTFPAVLQSSGLYSLSSVVTVPSSSLGTQTYICNVNHKPSNTKVDKKVEPKSCDKTHTCPPCPAPEAAGAPSVFLFPPKPKDTLMISRTPEVTCVVVDVSHEDPEVKFNWYVDGVEVHNAKTKPREEQYNSTYRVVSVLTVLHQDWLNGKEYKCKVSNKALPAPIEKTISKAKGQPREPQVYTLPPSREEMTKNQVSLTCLVKGFYPSDIAVEWESNGQPENNYKTTPPVLDSDGSFFLYSKLTVDKSRWQQGNVFSCSVMHEALHNHYTQKSLSLSPGGGGGSGGGGSGGGGSEVQLLESGGGLVQPGGSLRLSCAASGFTFSDFWMHWVRQAPGKGLEWISYISGDSGYTNYADSVKGRFTISRDNSKNTLYLQMNSLRAEDTAVYYCARDRPYYYYMDVWGKGTTVTVSSGGGGSGGGGSGGGGSGGGGSDIQMTQSPSSLSASVGDRVTITCRASQSVSRSLAWYQQKPGKAPKLLIYAASSLQSGVPSRFSGSGSGTDFTLTISSLQPEDFATYYCQQYKSYPVTFGQGTKVEIK
light: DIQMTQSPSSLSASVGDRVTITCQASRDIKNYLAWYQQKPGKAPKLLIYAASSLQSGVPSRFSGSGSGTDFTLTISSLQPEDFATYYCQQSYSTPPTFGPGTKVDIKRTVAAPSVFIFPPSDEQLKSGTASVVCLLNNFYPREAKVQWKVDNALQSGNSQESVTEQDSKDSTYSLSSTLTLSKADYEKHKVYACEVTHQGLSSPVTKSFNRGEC
In the assay with cyno MAdCAM [4], B7 showed a Kd of 49.9 nM, a koff of 0.0153 s⁻¹, a kon of 306000 M⁻¹ s⁻¹ and a response of 0.169. In the assay with human MAdCAM [5], this molecule returned a Kd of 122 nM, a dissociation rate constant (koff) of 0.0389 s⁻¹, a kon of 320000 M⁻¹ s⁻¹ and a response of 0.18. In the assay with mouse MAdCAM [6], binding was put at a Kd of 205 nM, the koff came out at 0.0558 s⁻¹ and the kon came to 272000 M⁻¹ s⁻¹.

B8: PMAB55 (bispecific antibody, human IgG1, kappa)
heavy: EVQLVQSGAEVKKPGASVKVSCKASGYSFTSYYMHWVRQAPGQGLEWMGIINPSGGSTSYAQKFQGRVTMTRDTSTSTVYMELSSLRSEDTAVYYCASGWVYWGQGTLVTVSSASTKGPSVFPLAPSSKSTSGGTAALGCLVKDYFPEPVTVSWNSGALTSGVHTFPAVLQSSGLYSLSSVVTVPSSSLGTQTYICNVNHKPSNTKVDKKVEPKSCDKTHTCPPCPAPEAAGAPSVFLFPPKPKDTLMISRTPEVTCVVVDVSHEDPEVKFNWYVDGVEVHNAKTKPREEQYNSTYRVVSVLTVLHQDWLNGKEYKCKVSNKALPAPIEKTISKAKGQPREPQVYTLPPSREEMTKNQVSLTCLVKGFYPSDIAVEWESNGQPENNYKTTPPVLDSDGSFFLYSKLTVDKSRWQQGNVFSCSVMHEALHNHYTQKSLSLSPGGGGGSGGGGSGGGGSEVQLLESGGGLVQPGGSLRLSCAASGFTFSSYWMHWVRQAPGKGLEWVSYISGSGGYTNYADSVKGRFTISRDNSKNTLYLQMNSLRAEDTAVYYCARDRPYYYDLDVWGKGTTVTVSSGGGGSGGGGSGGGGSGGGGSDIQMTQSPSSLSASVGDRVTITCRASQSISSSLAWYQQKPGKAPKLLIYAASSLQSGVPSRFSGSGSGTDFTLTISSLQPEDFATYYCQQYKSYPVTFGQGTKVEIK
light: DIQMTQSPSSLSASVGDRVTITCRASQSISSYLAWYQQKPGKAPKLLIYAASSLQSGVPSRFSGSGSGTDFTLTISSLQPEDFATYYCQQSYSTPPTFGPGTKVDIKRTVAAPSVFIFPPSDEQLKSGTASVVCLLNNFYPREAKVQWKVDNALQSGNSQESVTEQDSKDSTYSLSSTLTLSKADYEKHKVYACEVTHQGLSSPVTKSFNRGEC
Take B8: in the assay with cyno MAdCAM [4], the equilibrium dissociation constant (Kd) was found to be 44.3 nM, the koff turned out to be 0.00924 s⁻¹ and the kon was found to be 209000 M⁻¹ s⁻¹. Also, in the assay with human MAdCAM [5], the Kd came to 47.6 nM, the koff was 0.00163 s⁻¹ and the kon is 34300 M⁻¹ s⁻¹. In the assay with mouse MAdCAM [6], this molecule displayed a dissociation constant Kd of 59.5 nM, a koff of 0.00131 s⁻¹ and a kon of 22000 M⁻¹ s⁻¹.

B9: PMAB54 (bispecific antibody, human IgG1, kappa)
heavy: EVQLVQSGAEVKKPGASVKVSCKASGYSFTSYYMHWVRQAPGQGLEWMGIINPSGGSTSYAQKFQGRVTMTRDTSTSTVYMELSSLRSEDTAVYYCASGWVYWGQGTLVTVSSASTKGPSVFPLAPSSKSTSGGTAALGCLVKDYFPEPVTVSWNSGALTSGVHTFPAVLQSSGLYSLSSVVTVPSSSLGTQTYICNVNHKPSNTKVDKKVEPKSCDKTHTCPPCPAPEAAGAPSVFLFPPKPKDTLMISRTPEVTCVVVDVSHEDPEVKFNWYVDGVEVHNAKTKPREEQYNSTYRVVSVLTVLHQDWLNGKEYKCKVSNKALPAPIEKTISKAKGQPREPQVYTLPPSREEMTKNQVSLTCLVKGFYPSDIAVEWESNGQPENNYKTTPPVLDSDGSFFLYSKLTVDKSRWQQGNVFSCSVMHEALHNHYTQKSLSLSPGGGGGSGGGGSGGGGSEVQLLESGGGLVQPGGSLRLSCAASGFTFSSYWMHWVRQAPGKGLEWVSYISGSGGYTNYADSVKGRFTISRDNSKNTLYLQMNSLRAEDTAVYYCARDRPYYYDIDVWGKGTTVTVSSGGGGSGGGGSGGGGSGGGGSDIQMTQSPSSLSASVGDRVTITCRASQSISSSLAWYQQKPGKAPKLLIYAASSLQSGVPSRFSGSGSGTDFTLTISSLQPEDFATYYCQQYKSYPVTFGQGTKVEIK
light: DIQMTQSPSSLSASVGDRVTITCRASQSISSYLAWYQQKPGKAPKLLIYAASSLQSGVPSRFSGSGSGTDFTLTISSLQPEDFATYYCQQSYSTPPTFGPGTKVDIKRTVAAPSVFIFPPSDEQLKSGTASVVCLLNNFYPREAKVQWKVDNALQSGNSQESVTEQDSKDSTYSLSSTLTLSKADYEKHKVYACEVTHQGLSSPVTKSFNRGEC
In the assay with cyno MAdCAM [4], B9 came in with a Kd of 158 nM, an off-rate constant (koff) of 0.0114 s⁻¹ and a kon of 71900 M⁻¹ s⁻¹. In the assay with human MAdCAM [5], this molecule registered an equilibrium dissociation constant (Kd) of 592 nM, a koff of 0.14 s⁻¹ and a kon of 236000 M⁻¹ s⁻¹. In the assay with mouse MAdCAM [6], this molecule showed a Kd of 248 nM, a dissociation rate constant (koff) of 0.00138 s⁻¹ and a kon of 5570 M⁻¹ s⁻¹.
